Data published in patent US20260153518A1, “DIAGNOSIS OF IMMUNE-MEDIATED INFLAMMATORY DISEASES USING MMP12 AS INDICATOR, AND MEDICINE FOR TREATING IMMUNE-MEDIATED INFLAMMATORY DISEASES VIA MMP12 INHIBITION” (KEIO UNIVERSITY, priority 2022, published 2026).
Where no end group is shown, it is not given here.

Assays:
[1] = tested on: SCG/ThpNkc mice (ANCA-associated vasculitis model mice); assay: Therapeutic effects of MMP12 inhibitors on ANCA-associated vasculitis model mice; assay type: in vivo
Description: SCG/ThpNkc mice (see Proc Natl Acad Sci USA. 1993 Apr. 15; 90(8): 3413-7.) are ANCA-associated vasculitis model mice created by crossing and interbreeding two strains, MRL/Ipr and BXSB, and can be supplied from Laboratory Animal Resource Bank at the National Institute of Biomedical Innovation, Health and Nutrition (resource number: nbio133).
In this experiment, MMP408 (CAS No. 1258003-93-8), which is an MMP12 selective inhibitor, was administered to male SCG/ThpNkc mice, and the therapeutic effects of MMP408 were examined.
The SCG/ThpNkc mice were reared in cages with normal solid food and water. At weeks of age, it was confirmed that the mice had positive occult blood in their urine. From 11 weeks of age, MMP408 was administered via the intraperitoneal route at a dose of 100 μg twice a week. Urine analysis was performed at 15 and 20 weeks of age, and the mice were sacrificed at 20 weeks of age. The number of mice in an MMP408 non-administration group and the number of mice in an MMP408 administration group were n=25 and n=4, respectively.

[2] = biological target: h MMP12 (Homo sapiens, UniProt P39900); assay: Evaluation of cleavage of candidate peptides by MMP12 (UPLC); assay type: biochemical; conditions: for Number of cleavage peaks, Test: UPLC after incubation with h MMP12, 37° C.; for Number of cleavage peaks, Test / Cleavage rate (%) of each candidate peptide by MMP12: 16 hours; for Cleavage rate (%) of each candidate peptide by MMP12: activated h MMP12 2.0 ng/μL mixed 1:1 with 40 μM peptide, 37° C., UPLC peak area before/after, 440 nm; for cleavage rate by MMP12 (in words: low / medium / high) / cleavage site by MMP12: summary of Table 3
Chain of h MMP12 (P39900 106-470): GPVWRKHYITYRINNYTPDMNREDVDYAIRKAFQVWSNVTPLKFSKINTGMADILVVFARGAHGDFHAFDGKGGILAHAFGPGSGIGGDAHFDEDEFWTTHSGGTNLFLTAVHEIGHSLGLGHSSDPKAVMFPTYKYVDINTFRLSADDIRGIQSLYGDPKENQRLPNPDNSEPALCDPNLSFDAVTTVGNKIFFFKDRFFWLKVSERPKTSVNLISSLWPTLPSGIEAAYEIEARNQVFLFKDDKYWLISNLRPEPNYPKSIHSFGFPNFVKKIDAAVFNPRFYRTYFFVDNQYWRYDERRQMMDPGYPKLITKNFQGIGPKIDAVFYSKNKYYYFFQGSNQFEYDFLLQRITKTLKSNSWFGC
Description: The evaluation of cleavage of candidate peptides by MMP12 was performed as follows.
On the first day, h MMP12 was diluted to 50 μg/mL with an assay buffer. APMA was added to the h MMP12 solution to adjust the final concentration of APMA to 1 mM, and the solution was incubated at 37° C. for 24 hours to activate h MMP12.
On the second day, activated h MMP12 was diluted to 2 ng/μL (=40 nM) with an assay buffer The substrate (peptide) was diluted to 40 μM with an assay buffer. 50 μL of h MMP12 (2.0 ng/μL) and 50 μL of the substrate (peptide) were mixed and incubated at 37° C. for 16 hours. A blank was prepared by mixing equal volumes of an assay buffer and the substrate (peptide).
On the third day, 100 μL of acetonitrile was added to the mixture from the second day. After centrifugation for 10 minutes, the supernatant was collected, and 10 μL of the supernatant was analyzed using ultra high performance liquid chromatography (UPLC).
UPLC was performed under the conditions of measurement wavelength: 440 nm, flow rate: 0.4 mL/min, A: H2O with 0.1% TFA, B: CH3CN with 0.1% TFA, and elution conditions 10% B→70% B in 9.5 min, and as a result, it was confirmed that the two positive controls were cleaved by MMP12 (data is not shown).
For the candidate peptide Nos, 2, 4 to 7, 11, 15 to 17, 19, 20, and 22, the evaluation of cleavage by MMP12 was performed in the same manner as for the positive controls. Cleavage by MMP12 was confirmed for all the peptides tested. For Nos. 2 and 4 to 7, the cleavage sites were L-Q and L-R/K, but the cleavage rates were different. […] For Nos. 11, 15, 17, 20, and 22, the cleavage site was E-L, but the cleavage rates were different. The cleavage rate of No. 11 was high and the cleavage rate of No. 15 was low even though these candidate peptides have E-L-l. The cleavage rates of Nos. 17, 20, and 22, which have E-L-R, were high.

Number of cleavage peaks, Test [2] | Cleavage rate (%) of each candidate peptide by MMP12 [2] | cleavage rate by MMP12 (in words: low / medium / high) [2] | cleavage site by MMP12 [2] | Molecule | urine occult blood ([1]; MMP408 administration group, week 20, FIG. 12 (n=2)) | mice still alive at 20 weeks (survival curve) ([1]; male SCG/ThpNkc mice, MMP408 100 μg intraperitoneal twice a week from 11 weeks of age, n=4, log-rank test p=0.037 vs non-administration group (92% died by 20 weeks))
 |  |  |  | COC(=O)Nc1ccc2oc3cc(S(=O)(=O)N[C@@H](C(=O)O)C(C)C)ccc3c2c1 [MMP408] | improved | 2 out of 4
1 | 98.6% | high | E-L | APIANELRSQSLQT (not fully specified; also: 5-carboxyfluorescein label) [No. 17] |  | 
1 | 26.0% |  |  | APRIKKIVQKKLAG (not fully specified; also: 5-carboxyfluorescein label) [No. 19] |  | 
2 | 100.0% | high | E-L | ASVVTELRSQSLQT (not fully specified; also: 5-carboxyfluorescein label) [No. 20] |  | 
1 | 56.0% | medium |  | DKVWQDYIKDMKEN [No. 02] |  | 
2 | 100.0% | high | E-L | LNVQRKAIHELIQV (not fully specified; also: 5-carboxyfluorescein label) [No. 11] |  | 
3 | 100.0% | high | E-L | PAAAVLRELRSVS (not fully specified; also: 5-carboxyfluorescein label) [No. 22] |  | 
1 | 61.7% |  |  | PESSLRKRKRSR (not fully specified; also: 5-carboxyfluorescein label) [No. 16] |  | 
1 | 10.5% | low | E-L | RQAFNEKIRVVHQL (not fully specified; also: 5-carboxyfluorescein label) [No. 15] |  | 
1 | 90.3% | medium to high |  | SFSSSRNLQERL (not fully specified; also: 5-carboxyfluorescein label) [No. 06] |  | 
1 | 53.5% | medium |  | SLSFSTNLQKRL (not fully specified; also: 5-carboxyfluorescein label) [No. 04] |  | 
1 | 38.5% | medium to high |  | SRNLQERLRRKE (not fully specified; also: 5-carboxyfluorescein label) [No. 05] |  | 
2 | 70.4% | medium to high |  | STNLQESLRRKE (not fully specified; also: 5-carboxyfluorescein label) [No. 07] |  | 
